For this assay, the target named is SUMO1 (construct transfected into HSW cells in Example 8) (human) (UniProt P63165). The assay can be described thus: cell-based or functional assay.
Chain of UniProt P63165 (P63165 2-97 limits assumed): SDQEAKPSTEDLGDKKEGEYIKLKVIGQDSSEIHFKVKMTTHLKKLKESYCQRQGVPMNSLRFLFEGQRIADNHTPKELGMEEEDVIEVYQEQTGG

For “N-terminal deleted BACE1-CTF (BACE1 C-terminal fragment, residues 456-501) (peptide)”, the Aβ production (secreted Aβ levels by ELISA, HSW cells) was found to be 25 % reduction.

The values are drawn from US20140186357A1.
